Columns and labels:
[1] = system: murine neuroblastoma cell line N2a; test: Anti-tumor effect of recombinant murine PDS5A protein in tumor-bearing mouse, therapeutic model, N2a; type: in vivo, A/J mice
Procedure: (§1) The murine neuroblastoma cell line N2a was subcutaneously transplanted to A/J mice (7 weeks old, male, purchased from Japan SLC) in an amount of 1×10^6 cells. When the tumor volume reached an average of 50 to 100 mm^3 (typically 7 days after the inoculation of the tumor), the mice were randomly divided into groups each of which contains 10 individuals, and subjected to evaluation of the anti-tumor effect of the recombinant murine PDS5A protein (therapeutic model). With 100 μg (0.5 ml) of the recombinant murine PDS5A protein purified as described above, 50 μg of poly I:C was mixed to prepare a therapeutic agent for cancer, and this therapeutic agent was subcutaneously administered to the tumor-bearing mice a total of 3 times at intervals of 1 week. […] On the other hand, in the negative control group to which PBS(−) was administered and the group to which poly I:C alone (50 μg) was administered, the mean tumor volumes on Day 31 after the administration were 1657 mm^3 and 932 mm^3, respectively.

[2] = system: murine neuroblastoma cell line N2a; test: Anti-tumor effect of recombinant murine PDS5A protein, prophylactic model, N2a; type: in vivo, A/J mice
Procedure: (§2) Further, a therapeutic agent for cancer wherein 100 μg (0.5 ml) of the recombinant murine PDS5A protein and 50 μg poly I:C were mixed was prepared, and subcutaneously administered to A/J mice a total of 3 times at intervals of 1 week, followed by transplantation of 1×10^6 N2a cells to the mice and evaluation of the anti-tumor effect (prophylactic model). Ten individuals were included in each group, and, as controls for comparison, a negative control group to which PBS(−) was administered and a group to which poly I:C alone (50 μg) was administered were provided. […] On the other hand, in the negative control group to which PBS(−) was administered and the group to which poly I:C alone (50 μg) was administered, the mean tumor volumes on Day 40 after the administration were 1989 mm^3 and 1843 mm^3, respectively.

[3] = system: colon cancer cell line CT26; test: Anti-tumor effect of recombinant murine PDS5A protein in tumor-bearing mouse, therapeutic model, CT26; type: in vivo, Balb/c mice
Procedure: as §1, with “same experiment was carried out also for a colon cancer model. The colon cancer” for “murine neuroblastoma”, “CT26” for “N2a”, “Balb/c” for “A/J”, “24” for “31”, “1449” for “1657”, “835” for “932”

[4] = system: colon cancer cell line CT26; test: Anti-tumor effect of recombinant murine PDS5A protein, prophylactic model, CT26; type: in vivo, Balb/c mice
Procedure: as §2, with “Balb/c” for “A/J”, “CT26” for “N2a”, “31” for “40”, “1781” for “1989”, “1675” for “1843”

mammary gland tumor = test: Anti-tumor effect of recombinant PDS5A protein in tumor-bearing dog, mammary gland tumor; type: in vivo; conditions: 500 μg protein with same amount of Freund's incomplete adjuvant, regional lymph node near tumor, 3 times at 1-week intervals; tumor about 500 mm^3 (dog-derived) or 1000 mm^3 (human-derived) at administration
Procedure: The anti-tumor effect of the recombinant protein described in Example 5 below in 3 individuals of tumor-bearing patient dogs (3 individuals having a mammary gland tumor) having a tumor mass in the epidermis was evaluated. Before administration, the antibody titer against the recombinant protein in the serum of each patient dog was measured by the method described in Example 5 (3), and, as a result, an antibody titer higher than that of a healthy dog was detected.
With 500 μg (2.5 ml) each of the recombinant PDS5A proteins (dog-derived and human-derived) purified as described above, the same amount of Freund's incomplete adjuvant (manufactured by Wako Pure Chemical Industries, Ltd.) was mixed to prepare 2 kinds of therapeutic agents for cancer, each of which was administered to a regional lymph node in the vicinity of the tumor a total of 3 times at 1-week intervals. […] On the other hand, in the negative control group to which PBS(−) was administered, the tumor volume, which had been about 800 mm^3 at the time of administration of PBS, became 1625 mm^3 on Day 21 after the administration.

[5] = Day 31 after the administration, poly I:C alone 50 μg

Q: Which mean tumor volume [1, 5] does the source give for poly I:C [reference compound] here?
A: 932 mm^3

Q: And the mean tumor volume ([2]; Day 40 after the administration, poly I:C alone 50 μg)?
A: 1843 mm^3

Q: What about the mean tumor volume ([3]; Day 24 after the administration, poly I:C alone 50 μg) of the same molecule?
A: 835 mm^3

Q: What about the mean tumor volume [4, 5] of the same molecule?
A: 1675 mm^3

B1: human PDS5A protein (SEQ ID NO:44): full-length human PDS5A (SEQ ID NO:44) expressed in E. coli; given mixed with Freund's incomplete adjuvant (protein, listed as Homo sapiens)
chain: MDFTAQPKPATALCGVVSADGKIAYPPGVKEITDKITTDEMIKRLKMVVKTFMDMDQDSEDEKQQYLPLALHLASEFFLRNPNKDVRLLVACCLADIFRIYAPEAPYTSHDKLKDIFLFITRQLKGLEDTKSPQFNRYFYLLENLAWVKSYNICFELEDCNEIFIQLFRTLFSVINNSHNKKVQMHMLDLMSSIIMEGDGVTQELLDSILINLIPAHKNLNKQSFDLAKVLLKRTVQTIEACIANFFNQVLVLGRSSVSDLSEHVFDLIQELFAIDPHLLLSVMPQLEFKLKSNDGEERLAVVRLLAKLFGSKDSDLATQNRPLWQCFLGRFNDIHVPVRLESVKFASHCLMNHPDLAKDLTEYLKVRSHDPEEAIRHDVIVTIITAAKRDLALVNDQLLGFVRERTLDKRWRVRKEAMMGLAQLYKKYCLHGEAGKEAAEKVSWIKDKLLHIYYQNSIDDKLLVEKIFAQYLVPHNLETEERMKCLYYLYASLDPNAVKALNEMWKCQNMLRSHVRELLDLHKQPTSEANCSAMFGKLMTIAKNLPDPGKAQDFVKKFNQVLGDDEKLRSQLELLISPTCSCKQADICVREIARKLANPKQPTNPFLEMVKFLLERIAPVHIDSEAISALVKLMNKSIEGTADDEEEGVSPDTAIRSGLELLKVLSFTHPTSFHSAETYESLLQCLRMEDDKVAEAAIQIFRNTGHKIETDLPQIRSTLIPILHQKAKRGTPHQAKQAVHCIHAIFTNKEVQLAQIFEPLSRSLNADVPEQLITPLVSLGHISMLAPDQFASPMKSVVANFIVKDLLMNDRSTGEKNGKLWSPDEEVSPEVLAKVQAIKLLVRWLLGMKNNQSKSANSTLRLLSAMLVSEGDLTEQKRISKSDMSRLRLAAGSAIMKLAQEPCYHEIITPEQFQLCALVINDECYQVRQIFAQKLHKALVKLLLPLEYMAIFALCAKDPVKERRAHARQCLLKNISIRREYIKQNPMATEKLLSLLPEYVVPYMIHLLAHDPDFTRSQDVDQLRDIKECLWFMLEVLMTKNENNSHAFMKKMAENIKLTRDAQSPDESKTNEKLYTVCDVALCVINSKSALCNADSPKDPVLPMKFFTQPEKDFCNDKSYISEETRVLLLTGKPKPAGVLGAVNKPLSATGRKPYVRSTGTETGSNINVNSELNPSTGNRSREQSSEAAETGVSENEENPVRIISVTPVKNIDPVKNKEINSDQATQGNISSDRGKKRTVTAAGAENIQQKTDEKVDESGPPAPSKPRRGRRPKSESQGNATKNDDLNKPINKGRKRAAVGQESPGGLEAGNAKAPKLQDLAKKAAPAERQIDLQR
modifications: mixed with Freund's incomplete adjuvant
Q: How did the “day on which complete regression of the tumor was achieved” value (mammary gland tumor) turn out when B1 was run?
A: 21 days

B2: recombinant murine PDS5A protein: full-length murine PDS5A (SEQ ID NO:6) expressed in E. coli, His tag cleaved; given mixed with poly I:C (protein, listed as Mus musculus)
chain: MDFTQPKPATALCGVVSADGKIAYPPGVKEITDKITTDEMIKRLKMVVKTFMDMDQDSEDEKQQYLPLALHLASEFFLRNPNKDVRLLVACCLADIFRIYAPEAPYTSHDKLKDIFLFITRQLKGLEDTKSPQFNRYFYLLENLAWVKSYNICFELEDCNEIFIQLFRTLFSVINNSHNTKVQMHMLDLMSSIIMEGDGVTQELLDSILINLIPAHKNLNKQSFDLAKVLLKRTVQTIEACIANFFNQVLVLGRSSVSDLSEHVFDLIQELFAIDPQLLLSVMPQLEFKLKSNDGEERLAVVRLLAKLFGSKDSDLATQNRPLWQCFLGRFNDIHVPVRLESVKFASHCLMNHPDLAKDLTEYLKVRSHDPEEAIRHDVIVTIITAAKRDLALVNDQLLGFVRERTLDKRWRVRKEAMMGLAQLYKKYCLHGEAGKEAAEKVSWIKDKLLHIYYQNSIDDKLLVEKIFAQYLVPHNLETEERMKCLYYLYASLDPNAVKALNEMWKCQNMLRSHVRELLDLHKQPTSEANCSAMFGKLMTIAKNLPDPGKAQDFVKKFNQVLGDDEKLRSQLELLISPTCSCKQADVCVREIARKLANPKQPTNPFLEMVKFLLERIAPVHIDSEAISALVKLMNKSIEGTADDEEEGVSPDSAIRSGLELLKVLSFTHPTSFHSAETYESLLQCLRMEDDKVAEAAIQIFRNTGHKIETDLPQIRSTLIPILHQKAKRGTPHQAKQAVHCIHAIFSNKEVQLAQIFEPLSRSLNADVPEQLITPLVSLGHISMLAPDQFASPMKSVVANFIVKDLLMNDRSTGEKNGKLWSPDEEVSPEVLAKVQAIKLLVRWLLGMKNNQSKSANSTLRLLSAMLVSEGDLTEQKRISKSDMSRLRLAAGSAIMKLAQEPCYHEIITPEQFQLCALVINDECYQVRQIFAQKLHKALVKLLLPLEYMAIFALCAKDPVKERRAHARQCLLKNISIRREYIKQNPMATEKLLSLLPEYVVPYMIHLLAHDPDFTRSQDVDQLRDIKECLWFMLEVLMTKNENNSHAFMKKMAENIKLTRDAQSPDESKTNEKLYTVCDVALCVINSKSALCNADSPKDPVLPMKFFTQPEKDFCNDKSYISEETRVLLLTGKPKPTGVLGTVNKPLSATGRKPYVRSAGTETGSNINANSELSPSAGSRSREQSSEASETGVSENEENPVRIISVTPVKNIDTVKNKEINSDQSTQGNISSDRGKKRIVTAAGAENIQKPDEKVDESGPPAPSKPRRGRRPKSESQGNATKNDDLNKPVSKGRKRAAGSQESLEAGNAKAPKLQDGAKKAVPAERQIDLQR
modifications: mixed with poly I:C
Q: Which tumor outcome ([1]; Day 31, 100 μg protein mixed with 50 μg poly I:C, subcutaneous, 3 times at intervals of 1 week, PBS(−) group 1657 mm^3) does the source give for B2 here?
A: complete regression of the tumor

Q: And the tumor outcome ([2]; Day 40, 100 μg protein mixed with 50 μg poly I:C, subcutaneous, 3 times at intervals of 1 week before N2a transplantation, PBS(−) group 1989 mm^3)?
A: no development of a tumor

Q: What about the tumor outcome ([3]; Day 24, 100 μg protein mixed with 50 μg poly I:C, subcutaneous, 3 times at intervals of 1 week, PBS(−) group 1449 mm^3) of the same molecule?
A: complete regression of the tumor

Q: And the tumor outcome ([4]; Day 31, 100 μg protein mixed with 50 μg poly I:C, subcutaneous, 3 times at intervals of 1 week before CT26 transplantation, PBS(−) group 1781 mm^3)?
A: no development of a tumor

Source: US10251942B2, “Immunity-inducing agent” (TORAY INDUSTRIES, INC., priority 2009, dated 2019)
